Experimental data from patent US12006503B2, “Fusion proteins and methods thereof” (The Trustees of Columbia University in the City of New York, priority 2012, dated 2024).

Legend:
Balb 3T3 = experiment: Soft agar colony assay, Balb 3T3 cells; assay type: cell-based; conditions: Balb 3T3 cells transduced with the construct
Rat1 [1] = experiment: Subcutaneous tumor xenografts formed by transduced Rat1 cells; assay type: in vivo, rat; conditions: Rat1 cells expressing the construct
Rat1A cells = experiment: Karyotype analysis (chromosome counts, aneuploidy) of Rat1A cells; assay type: cell-based, rat; conditions: Rat1A cells, 100 cells counted
Description: Distribution of chromosome counts of cells arrested in mitosis and analyzed for karyotypes using DAPI. Chromosomes were counted in 100 metaphase cells for each condition to determine the ploidy and the diversity of chromosome counts within the cell population. FGFR3-TACC3 fusion induces aneuploidy.
The upper panel is a karyotype analysis of Rat1A cells transduced with control or FGFR3-TACC3 lentivirus and treated with vehicle (DMSO) or PD173470 (100 nM) for five days.
Karyotype analysis. Cultured cells were colcemid (20 ng/ml) treated for 90 minutes before harvesting for karyotopic analysis as detailed in Extended Experimental procedures. At least one hundred cells in metaphase were examined for chromosome count. PMSCS was scored in cells where a majority of the sister chromosomes were no longer associated. Two-tailed unpaired t-tests with Welch's correction were performed for comparison of means analysis.
Karyotypic Analysis. The colcemid treated cells were trypsinized, centrifuged for 7 minutes at 200×g, and the cell pellet re-suspended in warmed hypotonic solution and incubated at 37° C. for 13 minutes. The swollen cells were then centrifuged and the pellet re-suspended in 8 ml of Carnoy's fixative (3:1 methanol:glacial acetic acid). The cell suspension was centrifuged and washed twice in Carnoy's fixative. After the last centrifugation, the cells were resuspended in 0.5 to 1 ml of freshly prepared fixative to produce an opalescent cell suspension. Drops of the final cell suspension were placed on clean slides and air-dried. Slides were stained with DAPI and metaphases were analyzed under a fluorescent microscope.

[2] = test system: Ink4A;Arf-/- astrocytes in immunodeficient mice; experiment: Subcutaneous tumor xenograft formation by lentivirus-transduced Ink4A;Arf-/- astrocytes; assay type: in vivo, mouse; conditions: Ink4Arf-/- astrocytes expressing the construct
Text: FIG. 3B are photomicrographs showing of immunofluoresence staining of tumors from mice injected with Ink4A; Arf−/− astrocytes expressing FGFR3-TACC3 showing positivity for glioma-specific (Nestin, Oig2 and GFAP) and proliferation markers (Ki67 and pHH3). Sub-cutaneous tumors were generated by Ink4A; Arf−/− astrocytes expressing FGFR-TACC fusions.
Subcutaneous xenografts and drug treatment. […] For experiments with FGFR inhibitors, mice carrying ˜200-300 mm 3 subcutaneous tumors derived from Ink4A; Arf−/− astrocytes were randomized to receive 50 mg/kg PD173074 in 0.05 M lactate buffer (pH 5) or an equal volume of lactate buffer by oral gavage. Treatment was administered for three cycles consisting of four consecutive days followed by two days of rest. […] Data are expressed as mean±SE.

Rat1 [3] = experiment: Soft agar colony assay, Rat1 cells; assay type: cell-based, rat; conditions: Rat1 cells transduced with the construct
Text: FGFR1-TACC1 and FGFR3-TACC3 induce anchorage-independent growth in Rat1A fibroblasts. The number of soft agar colonies was scored from triplicate samples 14 days after plating. Representative microphotographs are shown.

B1: FGFR3: wild type FGFR3 expressed by lentivirus (protein, listed as Homo sapiens)
chain: MGAPACALALCVAVAIVAGASSESLGTEQRVVGRAAEVPGPEPGQQEQLVFGSGDAVELSCPPPGGGPMGPTVWVKDGTGLVPSERVLVGPQRLQVLNASHEDSGAYSCRQRLTQRVLCHFSVRVTDAPSSGDDEDGEDEAEDTGVDTGAPYWTRPERMDKKLLAVPAANTVRFRCPAAGNPTPSISWLKNGREFRGEHRIGGIKLRHQQWSLVMESVVPSDRGNYTCVVENKFGSIRQTYTLDVLERSPHRPILQAGLPANQTAVLGSDVEFHCKVYSDAQPHIQWLKHVEVNGSKVGPDGTPYVTVLKTAGANTTDKELEVLSLHNVTFEDAGEYTCLAGNSIGFSHHSAWLVVLPAEEELVEADEAGSVYAGILSYGVGFFLFILVVAAVTLCRLRSPPKKGLGSPTVHKISRFPLKRQVSLESNASMSSNTPLVRIARLSSGEGPTLANVSELELPADPKWELSRARLTLGKPLGEGCFGQVVMAEAIGIDKDRAAKPVTVAVKMLKDDATDKDLSDLVSEMEMMKMIGKHKNIINLLGACTQGGPLYVLVEYAAKGNLREFLRARRPPGLDYSFDTCKPPEEQLTFKDLVSCAYQVARGMEYLASQKCIHRDLAARNVLVTEDNVMKIADFGLARDVHNLDYYKKTTNGRLPVKWMAPEALFDRVYTHQSDVWSFGVLLWEIFTLGGSPYPGIPVEELFKLLKEGHRMDKPANCTHDLYMIMRECWHAAPSQRPTFKQLVEDLDRVLTVTSTDEYLDLSAPFEQYSPGGQDTPSSSSSGDDSVFAHDLLPPAPPSSGGSRT
- soft agar colonies (Balb 3T3): 0
- Subcutaneous tumor xenografts (tumors formed/injections) (Rat1 [1]): 0/5
- Average variation from mean number (Rat1A cells): 1.3
- Mean number (chromosomal number) (Rat1A cells): 42.1
- Percent aneuploidy (Rat1A cells): 33%
- Range (chromosomal number) (Rat1A cells): 35-44
- Subcutaneous tumor xenografts (tumors formed/injections) [2]: 0/5
- soft agar colonies (Rat1 [3]): 0
